B1: glmS ribozyme (parent)
chain: AUAAAAGCGCCAGAACUACAGAAAUGUAGUUGACGAGGAGGAGGUUUAUCGAAUUUUCGGCGGAUGCCUCCAAA

± gives the standard error. This sample holds only a part of the variants without activity. Some results are limits rather than exact numbers.

What all share (details): with glucosamine-6-phosphate
Variants of B1 are the subject of data set [1]. The data set is described as follows: self-cleavage kobs at 640 uM GlcN6P; higher = faster cleavage; RNA array. The gist of the method:
(§1)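 Barcoded ribozyme variants were transcribed in situ on sequenced MiSeq chips by E. coli RNA polymerase. At 37 °C, a hybridised Cy3 probe tracked them while glucosamine-6-phosphate (40 μM to 10 mM) in HEPES/KCl/Mg(OAc)2 buffer flowed in and tiles were imaged over ~14 h. Per-tile medians of signals normalised to baseline and to non-cleaving reference variants were fit to one- or two-exponential decays, giving kobs. kcat and KM came from weighted Michaelis–Menten fits across concentrations.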

The variants in data set [2] derive from B1. In words: self-cleavage kobs at 2500 uM GlcN6P; higher = faster cleavage; RNA array. The gist of the method:
as §1

The variants in data set [3] derive from B1. The data set is described as follows: self-cleavage kobs at 10000 uM GlcN6P; higher = faster cleavage; RNA array. The gist of the method: as §1

Regarding A33U G41A G44A A64U, the “self-cleavage kobs at 640 uM GlcN6P” value with glucosamine-6-phosphate [1] was less than 1e-05 s⁻¹. Besides, the “self-cleavage kobs at 2500 uM GlcN6P” value in the data set with glucosamine-6-phosphate [2] was less than 1e-05 s⁻¹. Moreover, the “self-cleavage kobs at 10000 uM GlcN6P” value in the data set with glucosamine-6-phosphate [3] was less than 1e-05 s⁻¹.
Consider A6G G35U C50U, for which, in the data set with glucosamine-6-phosphate [1], the “self-cleavage kobs at 640 uM GlcN6P” value is less than 1e-05 s⁻¹.
As for A15U C16A C71U, the “self-cleavage kobs at 640 uM GlcN6P” value with glucosamine-6-phosphate [1] was found to be 0.000111 ± 3.7e-05 s⁻¹. For the same variant, the “self-cleavage kobs at 2500 uM GlcN6P” value in the data set with glucosamine-6-phosphate [2] turned out to be 0.000598 ± 0.00019 s⁻¹.
Take U31A U54A C68A: the “self-cleavage kobs at 640 uM GlcN6P” value with glucosamine-6-phosphate [1] amounted to 6.98e-05 ± 2.6e-05 s⁻¹.
As to G7U A39C A42C, the “self-cleavage kobs at 640 uM GlcN6P” value in the data set with glucosamine-6-phosphate [1] was less than 1e-05 s⁻¹. Moreover, the “self-cleavage kobs at 2500 uM GlcN6P” value in the data set with glucosamine-6-phosphate [2] was less than 1e-05 s⁻¹.
As for C10U G43U U45G, in the data set with glucosamine-6-phosphate [1], the “self-cleavage kobs at 640 uM GlcN6P” value is less than 1e-05 s⁻¹. For the same variant, in the data set with glucosamine-6-phosphate [2], the “self-cleavage kobs at 2500 uM GlcN6P” value is less than 1e-05 s⁻¹.
For C34G G51A C67U, the “self-cleavage kobs at 640 uM GlcN6P” value in the data set with glucosamine-6-phosphate [1] was less than 1e-05 s⁻¹.
For U47A U56A C70U, the “self-cleavage kobs at 640 uM GlcN6P” value with glucosamine-6-phosphate [1] is 0.00117 ± 0.00047 s⁻¹. Moreover, the “self-cleavage kobs at 2500 uM GlcN6P” value with glucosamine-6-phosphate [2] was found to be 0.00157 ± 0.0006 s⁻¹.
The like results for C8G G13U U55C C58U were, in that order, less than 1e-05 s⁻¹ and less than 1e-05 s⁻¹.
A39U A42C U49G: the “self-cleavage kobs at 640 uM GlcN6P” value with glucosamine-6-phosphate [1] was less than 1e-05 s⁻¹.
Still for that read-out and setting: the value for G7U G9A A14U U55C was less than 1e-05 s⁻¹; that for A33C G41U U47G U65C C68A was less than 1e-05 s⁻¹.
As to A14G G29U U30G A33C C61G G66U, in the data set with glucosamine-6-phosphate [1], the “self-cleavage kobs at 640 uM GlcN6P” value was less than 1e-05 s⁻¹. The “self-cleavage kobs at 2500 uM GlcN6P” value with glucosamine-6-phosphate [2] was less than 1e-05 s⁻¹.
As for C8A G13U C16A A33U U65G C71A, the “self-cleavage kobs at 640 uM GlcN6P” value in the data set with glucosamine-6-phosphate [1] is less than 1e-05 s⁻¹. Also, in the data set with glucosamine-6-phosphate [2], the “self-cleavage kobs at 2500 uM GlcN6P” value is less than 1e-05 s⁻¹.
A12U U47G A52U C61U: the “self-cleavage kobs at 640 uM GlcN6P” value with glucosamine-6-phosphate [1] was less than 1e-05 s⁻¹.
The same measure, in the same setting: the value for A12G A39C A42C was less than 1e-05 s⁻¹.
On to G29U G37A C50G C68G, for which the “self-cleavage kobs at 640 uM GlcN6P” value with glucosamine-6-phosphate [1] came to 0.000384 ± 0.00016 s⁻¹. For the same variant, in the data set with glucosamine-6-phosphate [2], the “self-cleavage kobs at 2500 uM GlcN6P” value is 5.37e-05 ± 1.7e-05 s⁻¹.
For A15G A42U C71U, the “self-cleavage kobs at 640 uM GlcN6P” value with glucosamine-6-phosphate [1] was 7.41e-05 ± 1.8e-05 s⁻¹. Besides, the “self-cleavage kobs at 2500 uM GlcN6P” value with glucosamine-6-phosphate [2] came to 0.000188 ± 5.3e-05 s⁻¹.
For A6G C11A G59U G60C, in the data set with glucosamine-6-phosphate [1], the “self-cleavage kobs at 640 uM GlcN6P” value is less than 1e-05 s⁻¹.
In the case of U45C A53C, the “self-cleavage kobs at 640 uM GlcN6P” value with glucosamine-6-phosphate [1] worked out at 9.37e-05 ± 1.6e-05 s⁻¹. Further, the “self-cleavage kobs at 10000 uM GlcN6P” value with glucosamine-6-phosphate [3] was found to be 0.000403 ± 0.00014 s⁻¹.
For C50G C61U C67U, the “self-cleavage kobs at 640 uM GlcN6P” value with glucosamine-6-phosphate [1] was found to be 0.000213 ± 4.4e-05 s⁻¹.
On to C8G G32U U47G C67G C68G, for which the “self-cleavage kobs at 640 uM GlcN6P” value with glucosamine-6-phosphate [1] is 0.000105 ± 3.3e-05 s⁻¹. In addition, the “self-cleavage kobs at 2500 uM GlcN6P” value with glucosamine-6-phosphate [2] was determined as 4.39e-05 ± 2.1e-05 s⁻¹.
In the case of G35U U57A, the “self-cleavage kobs at 640 uM GlcN6P” value with glucosamine-6-phosphate [1] was less than 1e-05 s⁻¹. Moreover, the “self-cleavage kobs at 10000 uM GlcN6P” value with glucosamine-6-phosphate [3] is less than 1e-05 s⁻¹.
Consider U31G G32U G40A A48C, for which, in the data set with glucosamine-6-phosphate [1], the “self-cleavage kobs at 640 uM GlcN6P” value is less than 1e-05 s⁻¹. In addition, the “self-cleavage kobs at 2500 uM GlcN6P” value with glucosamine-6-phosphate [2] is less than 1e-05 s⁻¹.
With A15U A52U G66C C71U, the “self-cleavage kobs at 640 uM GlcN6P” value with glucosamine-6-phosphate [1] was less than 1e-05 s⁻¹.
As for C8U A12C U49A, the “self-cleavage kobs at 640 uM GlcN6P” value with glucosamine-6-phosphate [1] is less than 1e-05 s⁻¹.
In the case of G9U C61A C70G, the “self-cleavage kobs at 640 uM GlcN6P” value with glucosamine-6-phosphate [1] amounted to 4.55e-05 ± 2.1e-05 s⁻¹.
As for C11A A39U U45C G51C C61U, the “self-cleavage kobs at 640 uM GlcN6P” value with glucosamine-6-phosphate [1] was less than 1e-05 s⁻¹. Besides, the “self-cleavage kobs at 2500 uM GlcN6P” value in the data set with glucosamine-6-phosphate [2] was less than 1e-05 s⁻¹.
For C34U U46G C68G, the “self-cleavage kobs at 640 uM GlcN6P” value with glucosamine-6-phosphate [1] worked out at 0.000568 ± 0.00025 s⁻¹. The “self-cleavage kobs at 2500 uM GlcN6P” value with glucosamine-6-phosphate [2] is less than 1e-05 s⁻¹.
With C8U U30A U31C A48U C68U, in the data set with glucosamine-6-phosphate [1], the “self-cleavage kobs at 640 uM GlcN6P” value is less than 1e-05 s⁻¹. In the data set with glucosamine-6-phosphate [2], the “self-cleavage kobs at 2500 uM GlcN6P” value is less than 1e-05 s⁻¹.
For G7U C50U U65A U69C C71U, in the data set with glucosamine-6-phosphate [1], the “self-cleavage kobs at 640 uM GlcN6P” value was 6.46e-05 ± 2.1e-05 s⁻¹.
Take C8A U57G: the “self-cleavage kobs at 640 uM GlcN6P” value with glucosamine-6-phosphate [1] was less than 1e-05 s⁻¹. In the data set with glucosamine-6-phosphate [2], the “self-cleavage kobs at 2500 uM GlcN6P” value was less than 1e-05 s⁻¹.
For A12G A36C A39C C71G, the “self-cleavage kobs at 640 uM GlcN6P” value with glucosamine-6-phosphate [1] was less than 1e-05 s⁻¹. The “self-cleavage kobs at 2500 uM GlcN6P” value in the data set with glucosamine-6-phosphate [2] is less than 1e-05 s⁻¹.
